# Source: publication PMC3617294, “Novel Tryptophan Metabolism by a Potential Gene Cluster That Is Widely Distributed among Actinomycetes” (The Journal of Biological Chemistry, 2013)
# B1: SCO7467 (Streptomyces coelicolor A3(2)) (protein)
# chain: MRAASTGADPQDASTLGSFTGGQLRRLGSVAGLSRADVETYAQVLTDALGPVAQRPLSLAPPTRTFLSDDHTPVEFSLSFRPGAAPAMRVLVEPGCGATSLADNGRAGLEAVRTMARRWHFTTDALDELLDLFLPPAPQGPLALWCALELRPGGVPGVKVYLNPAVGGEERSAATVREALRRLGHHQAFDSLPQGSGYPFLALDLGNWTEPRAKVYLRHDNLTAGRAARLSRTDSGLVPTAVEGFFRTAAGPGSDAGGLDGRPAQSCHSFTDPGAERPSGFTLYIPVRDYVRHDGEALARASTVLHHHGMDASVLHRALAALTERRPEDGVGLIAYLALAGQRDQPPRVTAYLSSEAYTVRPPVVETVRQPLSVG
# notes: N-terminal His8 tag (pHIS8), expressed in E. coli BL21(DE3), Ni-NTA purified, 40 kDa, monomer
# B2: SCO7468 (Streptomyces coelicolor A3(2)) (protein)
# chain: MRVCVIGAGLSGLAMGHALKERGISFVCLEKAPDVGGIWRQPGAGERGPGYQSLHLNTARQLTGYADFPMPSDYPLYPRHDQVAAYLRSFAEWAGLLDHVELRTEVLSVRQDSDGSWTVVSRDADGAQSARRFEQVVVASGHHTDPALPDPLPAGADSFAGTILHSLDYRDGGDFAGRRVVVVGLGASAVDIAADLSRHAERTLLSVRRGLHIVPKQVFGMSLDEIAEAPWWNEMPFAERRRWVEQALLVARGRLSDYGLPEPDHPILSSATTLSDEILSRIRHGAVTPKPAIASFESDRVVFTDGSSEAADTVVYCTGFHMTFPFLPPGCPVAADGAVELYRRIVPADRPGLYFVGLVRPAGALTRLVEAQAQWVARLVDGAAALPGTEEMREEISTYLAGIVERYGRTRGASIQVDVSPYLAEFREPLPV
# Legend:
# [1] = molecular target: SCO7468 (Streptomyces coelicolor, UniProt Q8CJJ9); test: methanol denaturation and reverse-phase HPLC of co-purified flavin; assay type: binding; conditions: tightly bound
# [2] = substrate: N[C@@H](Cc1c[nH]c2ccccc12)C(=O)O; test: purified protein; assay type: biochemical, Streptomyces coelicolor; conditions: DMAPP 1 mM fixed, 2 mM MgCl2, 100 mM Tris-HCl pH 8.0, 30 °C
# [3] = substrate: CC(C)=CCOP(=O)(O)OP(=O)(O)O; test: purified protein; assay type: biochemical, Streptomyces coelicolor; conditions: L-tryptophan 1 mM fixed, 2 mM MgCl2, 100 mM Tris-HCl pH 8.0, 30 °C
# [4] = substrate: CC(C)=CCc1ccc2[nH]cc(C[C@H](N)C(=O)O)c2c1; test: LC-MS/MS quantification of aldoxime product (5-DMAIAOx); assay type: biochemical, Streptomyces coelicolor; conditions: 1 mM NADPH, 20 μM FAD, 100 mM Tris-HCl pH 8.0, 30 °C
# [5] = substrate: N[C@@H](Cc1c[nH]c2ccccc12)C(=O)O; test: LC-MS/MS quantification of aldoxime product (IAOx); assay type: biochemical, Streptomyces coelicolor; conditions: 1 mM NADPH, 20 μM FAD, 100 mM Tris-HCl pH 8.0, 30 °C
molecule,measurement,setting,value
Cc1cc2nc3c(=O)[nH]c(=O)nc-3n(C[C@H](O)[C@H](O)[C@H](O)COP(=O)(O)OP(=O)(O)OC[C@H]3O[C@@H](n4cnc5c(N)ncnc54)[C@H](O)[C@@H]3O)c2cc1C [FAD],methanol denaturation and reverse-phase HPLC of co-purified flavin,[1],FAD existed in the recombinant SCO7468 protein as a tightly bound form
B1,Km,[2],80 ± 6 µM
same,kcat,[2],0.40 ± 0.1 s⁻¹
same,Km,[3],50 ± 2 µM
same,kcat,[3],0.40 ± 0.1 s⁻¹
B2,Km,[4],0.57 ± 0.1 µM
same,kcat,[4],(8.2 ± 0.7) ×10^−3 s^−1
same,Km,[5],(3.3 ± 0.7) ×10^3 μM
same,kcat,[5],(5.2 ± 0.4) ×10^−3 s^−1
